Results reported in PMC8830681, “Circadian control of heparan sulfate levels times phagocytosis of amyloid beta aggregates” (PLoS Genetics, 2022).
Ends that are not written are not given here.

B1: Heparinase II: Recombinant Flavobacterial heparin lyase II; cleaves in both high- and low-sulfated positions (protein, UniProt C6XZB6 26-772, looked up)
Heparin and heparin-sulfate …: QTKADVVWKDVDGVSMPIPPKTHPRLYLREQQVPDLKNRMNDPKLKKVWADMIKMQEDWKPADIPEVKDFRFYFNQKGLTVRVELMALNYLMTKDPKVGREAITSIIDTLETATFKPAGDISRGIGLFMVTGAIVYDWCYDQLKPEEKTRFVKAFVRLAKMLECGYPPVKDKSIVGHASEWMIMRDLLSVGIAIYDEFPEMYNLAAGRFFKEHLVARNWFYPSHNYHQGMSYLNVRFTNDLFALWILDRMGAGNVFNPGQQFILYDAIYKRRPDGQILAGGDVDYSRKKPKYYTMPALLAGSYYKDEYLNYEFLKDPNVEPHCKLFEFLWRDTQLGSRKPDDLPLSRYSGSPFGWMIARTGWGPESVIAEMKVNEYSFLNHQHQDAGAFQIYYKGPLAIDAGSYTGSSGGYNSPHNKNFFKRTIAHNSLLIYDPKETFSSSGYGGSDHTDFAANDGGQRLPGKGWIAPRDLKEMLAGDFRTGKILAQGFGPDNQTPDYTYLKGDITAAYSAKVKEVKRSFLFLNLKDAKVPAAMIVFDKVVASNPDFKKFWLLHSIEQPEIKGNQITIKRTKNGDSGMLVNTALLPDAANSNITSIGGKGKDFWVFGTNYTNDPKPGTDEALERGEWRVEITPKKAAAEDYYLNVIQIADNTQQKLHEVKRIDGDKVVGVQLADRIVTFSKTSETVDRPFGFSVVGKGTFKFVMTDLLPGTWQVLKDGKILYPALSAKGDDGALYFEGTEGTYRFLR
B2: Heparinase I: Recombinant Flavobacterial heparin lyase I; cleaves in highly sulfated regions of HSPGs (protein, UniProt Q05819 22-384, looked up)
Heparin lyase I: QQKKSGNIPYRVNVQADSAKQKAIIDNKWVAVGINKPYALQYDDKLRFNGKPSYRFELKAEDNSLEGYAAGETKGRTELSYSYATTNDFKKFPPSVYQNAQKLKTVYHYGKGICEQGSSRSYTFSVYIPSSFPDNATTIFAQWHGAPSRTLVATPEGEIKTLSIEEFLALYDRMIFKKNIAHDKVEKKDKDGKITYVAGKPNGWKVEQGGYPTLAFGFSKGYFYIKANSDRQWLTDKADRNNANPENSEVMKPYSSEYKTSTIAYKMPFAQFPKDCWITFDVAIDWTKYGKEANTILKPGKLDVMMTYTKNKKPQKAHIVNQQEILIGRNDDDGYYFKFGIYRVGNSTVPVTYNLSGYSETAR
B3: Heparinase III: Recombinant Flavobacterial heparin lyase III; cleaves in low or unsulfated regions of HSPGs (protein, UniProt Q59289 25-659, looked up)
Heparin-sulfate lyase: QSSSITRKDFDHINLEYSGLEKVNKAVAAGNYDDAAKALLAYYREKSKAREPDFSNAEKPADIRQPIDKVTREMADKALVHQFQPHKGYGYFDYGKDINWQMWPVKDNEVRWQLHRVKWWQAMALVYHATGDEKYAREWVYQYSDWARKNPLGLSQDNDKFVWRPLEVSDRVQSLPPTFSLFVNSPAFTPAFLMEFLNSYHQQADYLSTHYAEQGNHRLFEAQRNLFAGVSFPEFKDSPRWRQTGISVLNTEIKKQVYADGMQFELSPIYHVAAIDIFLKAYGSAKRVNLEKEFPQSYVQTVENMIMALISISLPDYNTPMFGDSWITDKNFRMAQFASWARVFPANQAIKYFATDGKQGKAPNFLSKALSNAGFYTFRSGWDKNATVMVLKASPPGEFHAQPDNGTFELFIKGRNFTPDAGVFVYSGDEAIMKLRNWYRQTRIHSTLTLDNQNMVITKARQNKWETGNNLDVLTYTNPSYPNLDHQRSVLFINKKYFLVIDRAIGEATGNLGVHWQLKEDSNPVFDKTKNRVYTTYRDGNNLMIQSLNADRTSLNEEEGKVSYVYNKELKRPAFVFEKPKKNAGTQNFVSIVYPYDGQKAPEISIRENKGNDFEKGKLNLTLTINGKQQLVLVP

Tests used:
[1] = system: bone-marrow derived macrophages (BMDMs) from Per2::Luc C57BL/6J mice; assay: Phagocytosis assay of HiLyte 488 labeled amyloid-beta by serum-shock synchronized macrophages (with or without heparinases); type: cell-based, mouse; conditions: for circadian oscillation of the peptide's own phagocytosis (in words): HiLyte 488 labeled peptide, 2 h uptake, mAβ42 every 4 h for 24 h (ECHO), Aβ40 at PS20 and PS32; for Hedges' g, phagocytosis PS20 vs PS32 within the same treatment: for heparinases: Aβ42 phagocytosis in their presence; for Hedges' g, phagocytosis vs Aβ42-alone at PS20 (nadir, CT8) / Hedges' g, phagocytosis vs Aβ42-alone at PS32 (zenith, CT20): >100 cells per replicate, g >0.2 small, >0.5 medium, >0.8 large effect; for effect of heparinase treatment on the daily oscillation of Aβ42 phagocytosis (in words): heparinase added immediately before HiLyte 488 Aβ42, cells sampled 2 h later
Excerpt: To do so, we modified a previously-employed BMDM phagocytosis assay (as BMDMs are both models for activated microglia and are known to migrate into the brain in late-stage AD), to use fluorescently labeled Aβ42 to determine if the phagocytosis of Aβ42 is controlled by the circadian clock. In brief, BMDMs were derived from bone marrow progenitor cells extracted from Per2::Luc C57BL/6J mice and differentiated with recombinant Macrophage Colony Stimulating Factor (M-CSF), with flow cytometry confirming complete differentiation into naïve peripheral macrophages. […] 16 h after synchronization, confluent dishes of these BMDMs were treated HiLyte 488 labeled Aβ42 (Anaspec), in triplicate, every 4 h over a 24 h circadian period. BMDMs treated with labeled Aβ42 were harvested two hours after Aβ42 treatment and fixed with formalin. Total cellular fluorescence levels were analyzed with fluorescent confocal microscopy and quantified using a custom cell measurement MATLAB script (Fig 1A, S2 Fig, and S1 Table).
Bone marrow was harvested from the femurs and tibias of one 3–6-month-old male mouse using a 26 g needle and syringe filled with DMEM supplemented media. ACK lysing buffer (Lonza 10-548E) was used to lyse red blood cells in order to prevent erythrocyte contamination. Filtered bone marrow cells were counted using a BioRad TC20 automated cell counter and plated on 35 mm cell culture plates at a density of 1 x 10^6 in macrophage differentiation media. After three days of incubation at 37°C with 5% CO2, fresh macrophage differentiation media was added. After another 3 days of incubation, the cells were washed with 2 ml warm PBS per plate, and replaced with macrophage assay media, and the cultures were incubated for 24 h. Macrophage cultures were then washed with 2 ml warm PBS, macrophage serum starvation media was added, and the plates were incubated in the starve media for 24 h. Next, macrophage serum starvation media was removed, and macrophage serum shock media was added, and cultures were incubated for 2 h. Macrophage cultures were then washed with 2 ml warmed PBS each and macrophage media Luciferin was added. Cultures were sealed with grease and glass cover slips and placed in a LumiCycle 32 luminometer (Actimetrics) to confirm synchronization of circadian rhythmicity. Assays began 16 h post serum shock to allow the synchronized cells to return to homeostasis.
All amyloid-beta isoforms were reconstituted 24 h or less before experimentation in water and PBS (1:1) and were dissolved using sonication for approximately 30 min. The reconstituted Aβ was pooled from individual vials before aliquoting for each experimental replicate. The aliquots were then flash frozen and stored at -80°C until 20 min before use.
Using synchronized macrophages (as described above) starting at PS16 macrophages were treated every 4 h for 24 h, in triplicate, with 115 μl (0.25 mg/ml) of fluorescently labeled amyloid-beta (PS16, PS20, PS24, PS28, PS32, PS36, and PS40) and heparinases at the reported activity levels (S5 Table). The treated macrophages were then incubated at 37°C for 2 h. Following the two-hour incubation, the media was aspirated, and the macrophages were washed with 2ml of PBS three times before Cell Stripper (Corning 25-056-CI) was added to the cultures, which were then incubated at 37°C for 3 min. Detached macrophages were next centrifuged at 400 g for 5 min, the supernatant was aspirated, and the macrophage cell pellets were resuspended in formalin and incubated in the dark at room temperature for 30 min. Macrophages were then centrifuged for 5 min at 400 g, the supernatant was aspirated, and the macrophages were resuspended in 250 μL of PBS and kept at 4°C. The fixed macrophages were imaged using fluorescent microscopy within a week of the experiment. All fluorescent images from the phagocytosis experiments are available on Mendeley Data (doi: 10.17632/zrmgjyggmr.1). […]

[2] = Heparinase enzymatic activity; type: biochemical
Excerpt: We hypothesized that the rhythmic oscillation of HSPGs may inhibit the phagocytosis of Aβ42 due to the antiphase relationship between Aβ42 phagocytosis and PG levels and the published repressive effect of HSPGs on Aβ42 phagocytosis (Figs 1 and 4). To validate this hypothesis, we individually purified Heparinases I, II, and III, removed endotoxins, and confirmed Heparinase enzymatic activity (see Methods) (S5 Table). Heparinase I cleaves between D-glucosamine and L-iduronic acid in highly sulfated regions, heparinase III cleaves between N-acetyl-D-glucosamine in low or unsulfated regions, and heparinase II cleaves in both positions. We then extracted, derived, synchronized, and exposed BMDMs to fluorescently-labeled Aβ42 every 4 h over one circadian day. We next added a mixture of Heparinase I, II, and III to cleave all forms of HSPGs, with each biological replicate receiving a decreasing concentration of total heparinases (Replicate 1: 0.9577mg/ml of total heparinases, Replicate 2: 0.5071 mg/ml of total heparinases, Replicate 3: 0.2794 mg/ml of total heparinases) of the mixture of the three heparinases (see S5 Table). Immediately following the addition of the heparinases, we added fluorescently labeled Aβ42 and sampled Aβ42 levels inside the cell 2 hours later. By using fluorescently labeled Aβ42, we controlled for endogenously generated Aβ, which can be affected by HSPG expression through its interaction with BACE1 processing of the amyloid precursor protein [67].
Heparinases were prepared as has been previously reported. All heparinases used were purified away from endotoxins using an Endotoxin Removal Kit from GenScript (L00338).

[3] = log10 mean cell fluorescence, triplicate
[4] = heparinase stock of the 'All Hep' experiment
[5] = heparinase stock of the 'Hep I only' / 'Hep III only' experiments

Row | Molecule | circadian oscillation of the peptide's own phagocytosis (in words) ([1]; triplicate) | Hedges' g, total phagocytosis of Aβ40 vs Aβ42 at PS20 and PS32 [1, 3] | Hedges' g, phagocytosis PS20 vs PS32 within the same treatment [1, 3] | Oscillation Type ([1]; ECHO v4.1 fit, average of 3 replicates, log10 mean cell fluorescence, 2 h uptake every 4 h PS16-PS40, WT Per2::Luc BMDMs) | phagocytosis compared to human Aβ42 (in words) ([1]; every 4 h for 24 h, triplicate) | Hedges' g, phagocytosis vs Aβ42-alone at PS20 (nadir, CT8) [1, 3] | Hedges' g, phagocytosis vs Aβ42-alone at PS32 (zenith, CT20) [1, 3] | Activities (U/ml) [2, 4] [U/ml] | effect of heparinase treatment on the daily oscillation of Aβ42 phagocytosis (in words) ([1]; triplicate) | Activities (U/ml) [2, 5] [U/ml]
1 | Amyloid-beta 40 labeled with HiLyte 488 [Aβ40] | no oscillation in Aβ40 phagocytosis | 0.2752 | 0.06734 |  |  |  |  |  |  | 
2 | Mouse amyloid-beta 42 labeled with HiLyte 488 (DAEFGHDSGFEVRHQKLVFFAEDVGSNKGAIIGLMVGGVVIA; also: HiLyte 488 label, site not given here; UniProt P12023 672-713, looked up) [mAβ42, custom mouse Aβ42 labeled with HiLyte 488 from Anaspec (SQ-ANCPXXXX)] | did not have a circadian oscillation |  |  | Harmonic | increased phagocytosis compared to human Aβ42 phagocytosis at all sampled times | 3.032 | 2.021 |  |  | 
3 | B1 |  |  |  |  |  |  |  | 1.048 |  | 
4 | B2 |  |  | 0.1017 |  |  | 0.1328 | 0.635 | 0.034 | loss of daily oscillation | 0.332
5 | B3 |  |  | 0.1663 |  |  | 0.5409 | 0.22 | 20.212 | oscillations in Aβ42 phagocytosis were also ablated | 5.305
